Data taken from paper PMC12096953, “Insights into heme degradation and hydrogen peroxide-induced dimerization of human neuroglobin” (Bioscience Reports, 2025).

How the values were obtained:
[1] = biological target: the molecule itself; test: SEC; HPLC-SEC of wild-type hNgb, 1 µg/µL, 15-fold H2O2, 20 h at 4°C, with or without the spin trap MNP (10 µg/µL)
[2] = biological target: the molecule itself; test: SEC-MALS; HPLC-SEC-PDA-MALS, Superdex 200 10/300 GL, 1x PBS pH 7.4, 25°C, detection at 412 nm; 1 μg/μL protein incubated 20 h at 4°C with different molar excess of H2O2 before the run; monomer to covalent dimer

| Protein | percent dimerization (15-fold H2O2, with MNP) [1] | percent dimerization (15-fold H2O2, without MNP) [1] | stoichiometry N [2] |
| --- | --- | --- | --- |
| wild-type human neuroglobin (natural protein, UniProt Q9NPG2 1-151, looked up, human neuroglobin (hNgb), described as a protein of 151 amino acids; Heme b protein; The dimers seen arise after H2O2 treatment and are held by covalent Tyr-Tyr links; also called hNgb; wild-type hNgb) MERPEPELIRQSWRAVSRSPLEHGTVLFARLFALEPDLLPLFQYNCRQFSSPEDCLSSPEFLDHIRKVMLVIDAAVTNVEDLSSLEEYLASLGRKHRAVGVKLSSFSTVGESLLYMLEKCLGPAFTPATRAAWSQLYGAVVQAMSRGWDGE | 8.1% | 18.7% | 2 |
| human neuroglobin Y44AC46AC55A variant (natural protein, UniProt Q9NPG2 1-151, looked up, human neuroglobin (hNgb) with Y44A, C46A and C55A; also called triple variant) MERPEPELIRQSWRAVSRSPLEHGTVLFARLFALEPDLLPLFQANARQFSSPEDALSSPEFLDHIRKVMLVIDAAVTNVEDLSSLEEYLASLGRKHRAVGVKLSSFSTVGESLLYMLEKCLGPAFTPATRAAWSQLYGAVVQAMSRGWDGE | – | – | 2 |
| human neuroglobin Y44F variant (natural protein, UniProt Q9NPG2 1-151, looked up, human neuroglobin (hNgb) with Y44F) MERPEPELIRQSWRAVSRSPLEHGTVLFARLFALEPDLLPLFQFNCRQFSSPEDCLSSPEFLDHIRKVMLVIDAAVTNVEDLSSLEEYLASLGRKHRAVGVKLSSFSTVGESLLYMLEKCLGPAFTPATRAAWSQLYGAVVQAMSRGWDGE | – | – | 2 |
| human neuroglobin Y44A variant (natural protein, UniProt Q9NPG2 1-151, looked up, human neuroglobin (hNgb) with Y44A; also called hNgb Y44A) MERPEPELIRQSWRAVSRSPLEHGTVLFARLFALEPDLLPLFQANCRQFSSPEDCLSSPEFLDHIRKVMLVIDAAVTNVEDLSSLEEYLASLGRKHRAVGVKLSSFSTVGESLLYMLEKCLGPAFTPATRAAWSQLYGAVVQAMSRGWDGE | – | – | 2 |
